Substrate in this data set: O=P(O)(O)O[C@H]1[C@H](O)[C@@H](OP(=O)(O)O)[C@H](OP(=O)(O)O)[C@@H](OP(=O)(O)O)[C@H]1O
The data set is described as follows: purified protein. Particulars: Mg2+.

B1: SHIP2 (SH2 (Src homology 2)-domain-containing inositol-phosphatase-2) (Homo sapiens) (protein)
chain: DEPDMISVFIGTWNMGSVPPPKNVTSWFTSKGLGKTLDEVTVTIPHDIYVFGTQENSVGDREWLDLLRGGLKELTDLDYRPIAMQSLWNIKVAVLVKPEHENRISHVSTSSVKTGIANTLGNKGAVGVSFMFNGTSFGFVNCHLTSGNEKTARRNQNYLDILRLLSLGDRQLNAFDISLRFTHLFWFGDLNYRLDMDIQEILNYISRKEFEPLLRVDQLNLEREKHKVFLRFSEEEISFPPTYRYERGSRDTYAWHKQKPTGVRTNVPSWCDRILWKSYPETHIICNSYGCTDDIVTSDHSPVFGTFEVGVTSQFISKKGLSKTSDQAYIEFESIEAIVKTASRTKFFIEFYSTCLEEYKKSFENDAQSSDNINFLKVQWSSRQLPTLKPILADIEYLQDQHLLLTVKSMDGYE
For the protein B1, the Km (in general, the concentration of substrate that gives half-maximal velocity) was 215 ± 28 µM.

The values above are taken from publication PMC3355655.
